The source of these data is US5695964.

Test [1] concerns the target bovine thrombin (bovine) (UniProt P00735).
In a further test the target is DIP-thrombin agarose. Briefly: chromatography on DIP-thrombin agarose.
For the next test, the target named is human fibrinogen (human) (UniProt P02671).
Test [2] concerns the target bovine thrombin (bovine) (UniProt P00735). Particulars: scale: relative activity.

recombinant human urine thrombomodulin ruTM-Ala (receptor), sequence (chain): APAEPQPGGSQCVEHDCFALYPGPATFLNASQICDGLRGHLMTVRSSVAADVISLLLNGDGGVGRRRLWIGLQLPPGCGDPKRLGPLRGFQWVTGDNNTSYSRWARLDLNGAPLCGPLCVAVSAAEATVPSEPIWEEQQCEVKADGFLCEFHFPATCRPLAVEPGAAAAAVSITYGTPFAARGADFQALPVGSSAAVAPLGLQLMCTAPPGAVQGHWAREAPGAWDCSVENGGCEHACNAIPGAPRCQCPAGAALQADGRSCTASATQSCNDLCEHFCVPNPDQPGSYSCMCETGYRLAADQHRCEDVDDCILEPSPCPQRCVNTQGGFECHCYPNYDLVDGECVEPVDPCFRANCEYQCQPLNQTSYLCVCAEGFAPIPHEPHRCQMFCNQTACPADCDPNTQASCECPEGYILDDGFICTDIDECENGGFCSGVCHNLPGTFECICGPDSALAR
pKCR-TM-Val-originated recombinant human urine thrombomodulin (receptor), sequence (chain): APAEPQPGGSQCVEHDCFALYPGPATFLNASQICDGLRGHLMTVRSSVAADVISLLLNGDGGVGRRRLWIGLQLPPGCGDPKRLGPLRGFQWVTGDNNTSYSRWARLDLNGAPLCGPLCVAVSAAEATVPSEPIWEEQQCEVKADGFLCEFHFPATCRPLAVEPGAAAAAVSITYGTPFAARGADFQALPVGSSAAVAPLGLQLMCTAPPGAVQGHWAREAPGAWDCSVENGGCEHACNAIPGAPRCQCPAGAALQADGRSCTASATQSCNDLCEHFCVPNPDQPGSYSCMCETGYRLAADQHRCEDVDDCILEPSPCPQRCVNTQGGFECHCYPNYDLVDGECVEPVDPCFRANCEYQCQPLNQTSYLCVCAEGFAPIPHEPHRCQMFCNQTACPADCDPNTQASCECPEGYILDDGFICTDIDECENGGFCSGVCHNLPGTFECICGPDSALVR
mutation type recombinant human urine thrombomodulin in which 10 amino acid residues are deleted from the C-terminus of the human urine thrombomodulin (receptor), sequence (chain): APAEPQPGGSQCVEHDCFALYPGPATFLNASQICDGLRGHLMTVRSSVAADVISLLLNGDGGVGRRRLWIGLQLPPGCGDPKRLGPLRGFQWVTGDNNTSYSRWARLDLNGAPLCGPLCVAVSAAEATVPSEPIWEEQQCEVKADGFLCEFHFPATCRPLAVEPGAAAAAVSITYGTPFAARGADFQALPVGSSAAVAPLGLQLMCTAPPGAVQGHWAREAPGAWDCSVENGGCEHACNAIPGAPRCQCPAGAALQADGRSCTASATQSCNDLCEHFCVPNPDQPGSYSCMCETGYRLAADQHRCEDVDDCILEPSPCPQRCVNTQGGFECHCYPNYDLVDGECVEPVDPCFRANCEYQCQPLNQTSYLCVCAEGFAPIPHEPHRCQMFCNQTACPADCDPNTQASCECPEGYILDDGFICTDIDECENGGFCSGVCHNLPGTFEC

Turning to “pKCR-TM-Val-originated recombinant human urine thrombomodulin (receptor)”, the Coagulation time with bovine thrombin (bovine) [1] was greater than 500 s. This substance also returned an adsorbed by thrombin with DIP-thrombin agarose of 100%. On to “bovine thrombin (from UniProt P00735) (enzyme)”, for which, in the test with human fibrinogen (human), the Coagulation time is 37.8 s.

“recombinant human urine thrombomodulin ruTM-Ala (receptor)” yielded a Coagulation time in the test with bovine thrombin (bovine) [1] greater than 500 s. In the test with bovine thrombin (bovine) [2], this substance displayed a Protein C activating ability (relative activity) of 3.8. Moreover, the adsorbed by thrombin with DIP-thrombin agarose came to 100%. The substance “mutation type recombinant human urine thrombomodulin in which 10 amino acid residues are deleted from the C-terminus of the human urine thrombomodulin (receptor)” returned a Protein C activating ability (relative activity) with bovine thrombin (bovine) [2] of 4.1. Same read-out and setting: then “human placenta thrombomodulin (from UniProt P07204) (receptor)”, with 1.
